{"source": "paper PMC8355190", "target": "PKM2 (human (endogenous in H1650)) (UniProt P14618)", "assay": "cross-linking", "data": [{"substance": "PKM2, P14618 1-531 (enzyme; other documents disagree on this pair)", "values": [{"measurement": "stoichiometry N", "value": 2}]}]}
